Measurements: paper PMC10293821

What was measured:
[1] = biological target: apo recombinant HRPII mutant with a 4 amino acid C terminus truncation (P. falciparum); assay: AUC
[2] = biological target: histidine-rich protein II (HRPII) purified from conditioned media of cultured P. falciparum (P. falciparum strain 3D7); assay: AUC

apo recombinant HRPII mutant with a 4 amino acid C terminus truncation (domain or fragment)
stoichiometry N [1]: 3

histidine-rich protein II (HRPII) purified from conditioned media of cultured P. falciparum (natural protein)
stoichiometry N [2]: 14
